To fix the notation:
B1: INTS3 (parent)
chain: AQLQALRQKEVDFCISLLRERFME
B2: CPOX (parent)
chain: HAPTIHFNYRYFEVEEADGNKQWW
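Further: lentivirally expressed fusions sorted by FACS into six bins by GFP to DsRed ratio, PSI derived from sequencing read proportions per bin multiplied by bin number.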

Variants of B1 are the subject of one data set. As to the kind of experiment: protein stability index of a GFP-peptide fusion (GPS, HEK-293T) (PSI 1-6); higher = more stable. Conditions: c terminus: a fixed tail appended.
In the case of NQLQALRQKEVDFCISLLRERFME [A1N], the protein stability index is 2.73. The same measure, in the same setting: next, EQLQALRQKEVDFCISLLRERFME [A1E]: 2.65. Same read-out and setting: with MQLQALRQKEVDFCISLLRERFME [A1M] the figure was 2.4. Still for that read-out and setting: with IQLQALRQKEVDFCISLLRERFME [A1I] the figure was 2.43; with WQLQALRQKEVDFCISLLRERFME [A1W], 2.49. VQLQALRQKEVDFCISLLRERFME [A1V]: the protein stability index came out at 2.85. Consider QQLQALRQKEVDFCISLLRERFME [A1Q], for which the protein stability index stood at 2.43. On the same count and under the same terms, next, PQLQALRQKEVDFCISLLRERFME [A1P]: 3.68; TQLQALRQKEVDFCISLLRERFME [A1T]: 3.13. Same read-out and setting: next, KQLQALRQKEVDFCISLLRERFME [A1K]: 2.62; RQLQALRQKEVDFCISLLRERFME [A1R]: 2.08. The same measure, in the same setting: with DQLQALRQKEVDFCISLLRERFME [A1D] the figure was 2.11; with LQLQALRQKEVDFCISLLRERFME [A1L], 1.61; with GQLQALRQKEVDFCISLLRERFME [A1G], 2.93. For the variant HQLQALRQKEVDFCISLLRERFME [A1H], the protein stability index is 3.79. The same measure, in the same setting: next, CQLQALRQKEVDFCISLLRERFME [A1C]: 3.01; AQNQALRQKEVDFCISLLRERFME [L3N]: 1.55. Same read-out and setting: next, AQGQALRQKEVDFCISLLRERFME [L3G]: 2.11; AQMQALRQKEVDFCISLLRERFME [L3M]: 2. For the variant AQRQALRQKEVDFCISLLRERFME [L3R], the protein stability index is 1.19.

With AQWQALRQKEVDFCISLLRERFME [L3W], the protein stability index worked out at 2.71.

With AQKQALRQKEVDFCISLLRERFME [L3K], the protein stability index came to 1.5. On the same count and under the same terms, with AQPQALRQKEVDFCISLLRERFME [L3P] the figure was 1.62; with AQCQALRQKEVDFCISLLRERFME [L3C], 1.76. Take AQTQALRQKEVDFCISLLRERFME [L3T]: the protein stability index worked out at 1.44.

In the case of AQHQALRQKEVDFCISLLRERFME [L3H], the protein stability index was found to be 1.41.

As for AQAQALRQKEVDFCISLLRERFME [L3A], the protein stability index amounted to 2.15.

Regarding AQQQALRQKEVDFCISLLRERFME [L3Q], the protein stability index was 1.78. As to AQDQALRQKEVDFCISLLRERFME [L3D], the protein stability index came out at 1.81.

Turning to AQIQALRQKEVDFCISLLRERFME [L3I], the protein stability index came to 2.87. Same read-out and setting: with AQSQALRQKEVDFCISLLRERFME [L3S] the figure was 1.76.

In the case of AQEQALRQKEVDFCISLLRERFME [L3E], the protein stability index was 2.21. Same read-out and setting: next, AQLQELRQKEVDFCISLLRERFME [A5E]: 2.24; AQLQCLRQKEVDFCISLLRERFME [A5C]: 3.02; AQLQDLRQKEVDFCISLLRERFME [A5D]: 2.68. The same measure, in the same setting: next, AQLDALRQKEVDFCISLLRERFME [Q4D]: 2.04. On the same count and under the same terms, next, AQLPALRQKEVDFCISLLRERFME [Q4P]: 1.5; AQLSALRQKEVDFCISLLRERFME [Q4S]: 1.55.

As for AQLCALRQKEVDFCISLLRERFME [Q4C], the protein stability index turned out to be 1.93. On the same count and under the same terms, next, AQLFALRQKEVDFCISLLRERFME [Q4F]: 1.83; AQLIALRQKEVDFCISLLRERFME [Q4I]: 3.2; AQLMALRQKEVDFCISLLRERFME [Q4M]: 2.55. The same measure, in the same setting: with AQLAALRQKEVDFCISLLRERFME [Q4A] the figure was 3.65. Same read-out and setting: with AQLVALRQKEVDFCISLLRERFME [Q4V] the figure was 2.98. Turning to AQLRALRQKEVDFCISLLRERFME [Q4R], the protein stability index turned out to be 2.3. Still for that read-out and setting: next, AQLLALRQKEVDFCISLLRERFME [Q4L]: 2.45. On to AQLHALRQKEVDFCISLLRERFME [Q4H], for which the protein stability index came to 3.32.

For the variant AQLEALRQKEVDFCISLLRERFME [Q4E], the protein stability index stood at 2.81. The same measure, in the same setting: next, AQLNALRQKEVDFCISLLRERFME [Q4N]: 2.4; AQLTALRQKEVDFCISLLRERFME [Q4T]: 3.02; AQLWALRQKEVDFCISLLRERFME [Q4W]: 3.64.

As to AQLGALRQKEVDFCISLLRERFME [Q4G], the protein stability index stood at 2.13.

As for ANLQALRQKEVDFCISLLRERFME [Q2N], the protein stability index was found to be 3.27. Turning to AYLQALRQKEVDFCISLLRERFME [Q2Y], the protein stability index amounted to 3.15. Regarding AWLQALRQKEVDFCISLLRERFME [Q2W], the protein stability index was determined as 2.42. In the case of ADLQALRQKEVDFCISLLRERFME [Q2D], the protein stability index is 3.29. Consider AFLQALRQKEVDFCISLLRERFME [Q2F], for which the protein stability index is 2.63. Consider AMLQALRQKEVDFCISLLRERFME [Q2M], for which the protein stability index is 3.7. Still for that read-out and setting: next, APLQALRQKEVDFCISLLRERFME [Q2P]: 2.38; AELQALRQKEVDFCISLLRERFME [Q2E]: 1.48. Still for that read-out and setting: next, AGLQALRQKEVDFCISLLRERFME [Q2G]: 3.4. On the same count and under the same terms, next, ATLQALRQKEVDFCISLLRERFME [Q2T]: 3.02; ACLQALRQKEVDFCISLLRERFME [Q2C]: 2.98; AILQALRQKEVDFCISLLRERFME [Q2I]: 1.67. Regarding AHLQALRQKEVDFCISLLRERFME [Q2H], the protein stability index was 4.58. On the same count and under the same terms, with ARLQALRQKEVDFCISLLRERFME [Q2R] the figure was 4.11.

The next data set covers variants of B2. The description is as above. As to conditions: c terminus: a fixed tail appended.
Regarding HAPTIHFNYRYFEVEEADGLKQWW [N20L], the protein stability index is 2.12.

In the case of HAPTIHFNYRYFEVEEADGRKQWW [N20R], the protein stability index amounted to 2.46. On the same count and under the same terms, with HAPTIHFNYRYFEVEEADGHKQWW [N20H] the figure was 2.38. Still for that read-out and setting: with HAPTIHFNYRYFEVEEADGTKQWW [N20T] the figure was 2.85. Take HAPTIHFNYRYFEVEEADGFKQWW [N20F]: the protein stability index was 1.07. With HAPTIHFNYRYFEVEEADGPKQWW [N20P], the protein stability index was 1.98. Consider HAPTIHFNYRYFEVEEADGEKQWW [N20E], for which the protein stability index worked out at 2.75. The same measure, in the same setting: with HAPTIHFNYRYFEVEEADGIKQWW [N20I] the figure was 2.34; with HAPTIHFNYRYFEVEEADGCKQWW [N20C], 1.87. On the same count and under the same terms, with HAPTIHFNYRYFEVEEADGGKQWW [N20G] the figure was 2.38; with HAPTIHFNYRYFEVEEADGSKQWW [N20S], 2.08; with HAPTIHFNYRYFEVEEADGYKQWW [N20Y], 1.66. Still for that read-out and setting: next, HAPTIHFNYRYFEVEEADGVKQWW [N20V]: 2.27. As for HAPTIHFNYRYFEVEEADGWKQWW [N20W], the protein stability index came to 1.88. On the same count and under the same terms, next, HAPTIHFNYRYFEVEEADGDKQWW [N20D]: 2.12; HAPTIHFNYRYFEVEEADGMKQWW [N20M]: 1.32. Consider HAPTIHFNYRYFEVEEADGQKQWW [N20Q], for which the protein stability index was found to be 2.95. Same read-out and setting: with HAPTIHFNYRYFEVEEADGKKQWW [N20K] the figure was 3.29; with HAPTIHFNYRYFEVEEADGAKQWW [N20A], 1.76. Consider HAPTIHFNYRYFEVEEADGNKQGW [W23G], for which the protein stability index was 2.8.

In the case of HAPTIHFNYRYFEVEEADGNKQAW [W23A], the protein stability index was 3.94.

For the variant HAPTIHFNYRYFEVEEADGNKQLW [W23L], the protein stability index was found to be 2.73. Same read-out and setting: with HAPTIHFNYRYFEVEEADGNKQYW [W23Y] the figure was 2.33. On the same count and under the same terms, with HAPTIHFNYRYFEVEEADGNKQTW [W23T] the figure was 2.63; with HAPTIHFNYRYFEVEEADGNKQDW [W23D], 4.27. For the variant HAPTIHFNYRYFEVEEADGNKQQW [W23Q], the protein stability index was 3.38.

HAPTIHFNYRYFEVEEADGNKQMW [W23M]: the protein stability index turned out to be 3.04. Regarding HAPTIHFNYRYFEVEEADGNKQRW [W23R], the protein stability index worked out at 3.03.
